Test results as given in the supplement of paper PMC9170038.

System: MS2 coat protein
Assay: apparent KD of MS2 coat protein; designed switch direction (-1 OFF switch, 1 ON switch): -1; higher = weaker reporter binding
How it was run: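 RNA switches sharing common flanks were transcribed by stalled E. coli RNA polymerase on Illumina chips. A doubling series of SNAP-549-labelled MS2 coat protein, from 0.7 or 1.5 nM to 3 µM, was applied in Tris-HCl pH 7.5 buffer with KCl, MgCl2, BSA, DTT, tRNA and Tween-20. Each step lasted 0.8–1.5 h at the bottom of the series and 10–20 min at the top. Normalised cluster fluorescence was curve-fitted, giving apparent KD as the per-design median over clusters.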

[1] = input ligand: microRNA oligo, concentration not stated
[2] = Eterna round: R95, input ligand: microRNA oligo, concentration not stated
[3] = Eterna round: R95, input ligand: FMN 200 uM
[4] = Eterna round: R95, input ligand: none

Row | Sequence | apparent KD of MS2 coat protein (input ligand: FMN 200 uM) [nM] | apparent KD of MS2 coat protein [1] [nM] | apparent KD of MS2 coat protein (input ligand: none) [nM] | apparent KD of MS2 coat protein [2] [nM] | apparent KD of MS2 coat protein [3] [nM] | apparent KD of MS2 coat protein [4] [nM]
1 | UUAAAUCAUGUAGGAUAUGCGUGGAGAAGCUAUGCAGAAGGACAUGAGGAUCACCCAUGUGCUUCCGUCUGAGAACAGACGGUA [Mat - Exclusion NG 1 - Mod of JL - D13] (Eterna round: R96, puzzle: Exclusion NG 1) | 210 | 49.9 | 45.7 | – | – | –
2 | GCCGAAAGUGUGAGGAUAUACCUAUGGAUACAUAGGUAGAAGGCACAUGAGGAUCACCCAUGUUCCUAAUCGGC [Eli bmx4 4.18] (Eterna round: R97, puzzle: Brourd's mod of Exclusion 4) | 306 | – | 103 | – | – | –
3 | UAUUAGCAAGUGAGAUCCGACAUGAGGAUCACCCAUGUGCUCGUCUUAUAAGGUACUGUGACAAAAGUCACGGUACC [Elimod 2 - Jieux - Sensor, turn-off variant 1] (Eterna round: R97, puzzle: Sensor, turn-off variant 1) | 200 | – | 283 | – | – | –
4 | GUGCAAUGAGGAUAUACGUUGGUGAACAUCUGUGUGCUCCUACAUGAGGAUCACCCAUGUAGAAGGCAUGUCAC [LRO-Excl2-18] (puzzle: Exclusion 2) | – | – | – | 11.3 | – | –
5 | AUUUUAUUCUGAGGAUAUUGAUUAAUCCUCUCACAUGAGGAUCACCCAUGUUUCCGUGUUUACCGCAAGAAGGCAGUUUUGUAU [JR_ExcNG2_Sub025] (Eterna round: R96, puzzle: Exclusion NG 2) | 41.4 | 35.2 | 41 | – | – | –
6 | CCUCGACAUGAGGAUCACCCAUGUCAGGAUAUUGUGUUUCGGGUUUUUUACCUUUAGGCAAGAAGGGAUGUGUG [LRO-Excl1-16] (puzzle: Exclusion 1) | – | – | – | 15.8 | – | –
7 | GCAGACGUAGUGAGGAUAUGCUCUACCUCGGUAGAGCAGAAGGCACAUGAGGAUCACCCAUGUGAUUCUUCUGC [Omei Ex4B B10] (Eterna round: R97, puzzle: Brourd's mod of Exclusion 4) | 324 | – | 47.2 | – | – | –
8 | GUGUGCACGCUGCGAUCCUACAUGAGGAUCACCCAUGUGGUCUGGUGGCGUGGGUCACCGGACUUGGCUCGUCUUGA [salish99_S_TOV1_R5_069] (Eterna round: R97, puzzle: Sensor, turn-off variant 1) | 121 | – | 118 | – | – | –
9 | AGAUGGCGAGGAUAUACAUGAGGAUCACCCAUGUGAAGAGAUAAAGUGAGGAAGAAAAGUAGAAGGCGCUGUCA [Mat - Exclusion 3 - Mod of Salish D24] (puzzle: Exclusion 3) | – | – | – | 51.4 | 199 | 40.9
10 | CCAUAUAACUGAGGAUAUAAUCGCCACUGACGUUUAGAAGGCAGACAUGAGGAUCACCCAUGUGAUUUCUCAAUAUUAUACAUC [Prohibition 78 - Jieux - Exclusion NG 1] (Eterna round: R96, puzzle: Exclusion NG 1) | 1840 | 31.1 | 245 | – | – | –
11 | CCGUUGGUAGGAUAUCCAACGAUAUACUUGAGGAUCACCCAAGUCCGUAGGGCGUUCGAAGGAGAAGGGCUGAUGG [Zaisaat] (Eterna round: R97, puzzle: Exclusion 5) | 120 | – | 108 | – | – | –
12 | GCUAUGCAAGGAUAUACAAGAUUAUGACAAGCGUGGAAACGACAUGAGGAUCACCCAUGUAGAAGGUGUUAUGC [Eternabot (L2) Solution 56] (Eterna round: R97, puzzle: Exclusion 2) | 58.1 | – | 65.5 | – | – | –
13 | ACUAGCUUUUUGCAUAGUAGGUUUGGUGCUUCGUAUGCUACAUGAGGAUCACCCAUGUUUUACUGAUGUCGUCGUUU [JR_SV3TOV2_Sub094] (puzzle: Sensor v3, turn-off variant 2) | – | – | – | 52.9 | 32.7 | 32.3
14 | AGAUCACAUGAGGAUCACCCAUGUCAGGAUAUGAUACUAUGUACUUCGGUACAUAGUAUCAGAAGGGAUAUAAA [Ex1-3: 68] (puzzle: Exclusion 1) | – | – | – | 75.1 | – | –
15 | AAAUAACAAGCGAGAUCCUACAUGAGGAUCACCCAUGUGCUCGUCUUAACAAGUACUAUCACGAAAGUGAUAGUACA [Mat - Sensor v3 - turn-off var 1 - Eli Mod - D69] (puzzle: Sensor v3, turn-off variant 1) | – | – | – | 59.4 | 17.5 | 12.1
16 | CUGGUUGUCGAGGAUAUGCACCAGCUCACUGACGCAGAAGGCGACACAUGAGGAUCACCCAUGUCGGUUCGCGU [salish99_ex6_r004_436] (Eterna round: R97, puzzle: Exclusion 6) | 30.7 | – | 28.2 | – | – | –
17 | UUUGUUUAUGUAGGAUAUGCCUGGCGUGCCUUCGCAGAAGGACAUGAGGAUCACCCAUGUAUUGCGGUCUGCGUUCAGAUCGCG [salish99_ExNG1_r4_029] (Eterna round: R96, puzzle: Exclusion NG 1) | 52 | 34.8 | 43.2 | – | – | –

Row | Sequence | apparent KD of MS2 coat protein (input ligand: FMN 200 uM) [nM] | apparent KD of MS2 coat protein [1] [nM] | apparent KD of MS2 coat protein (input ligand: none) [nM] | apparent KD of MS2 coat protein [2] [nM] | apparent KD of MS2 coat protein [3] [nM] | apparent KD of MS2 coat protein [4] [nM]
18 | UUUGGGCAAGCAUGAUCCCACAUGAGGAUCACCCAUGUGUUCGUCUUAUAGGCUGCUGAGGCUUUUGCCUCGGUGGC [LRO Sensor-off var1-01 loose mod of D91 from Mat747] (Eterna round: R97, puzzle: Sensor, turn-off variant 1) | 751 | – | 965 | – | – | –
19 | UACAUGAGGAUCACCCAUGUUUUGUCGUGUAUGGUAUUUAUCUAGGAUAUCAAUUGAUUAAUUUAUGAGAAGGAGAAUAUUAAU [JMF's solution 60] (Eterna round: R96, puzzle: Exclusion NG 3) | 39.9 | 39.1 | 34.4 | – | – | –
20 | UUUAAUUUUUUUUUUUUACAAGCUUUUUGCUCGUCUUAUACAUGAGGAUCACCCAUGUAAAUGGAGGAUAAAUUAUC [JMF 29] (puzzle: Sensor v3, turn-off variant 2) | – | – | – | 41.1 | 22.4 | 19.7
21 | UAAUAACAUGUAGGAUAUGCGUGGCGAAGCUAUGCAGAAGGACAUGAGGAUCACCCAUGUUAAAGCGUCUGAGAACAGAUGCGA [Mat - Exclusion NG 1 - Mod of JL - D98] (Eterna round: R96, puzzle: Exclusion NG 1) | 165 | 24.9 | 30.5 | – | – | –
22 | GCUUGAGCUGUGAGGAUAUUUCGAGUGAAAGCUUGAGAGAAGGCACAUGAGGAUCACCCAUGUAAGGUUCGAGU [-26, -23.9 kcal, A 28%, 1bis-1bis] (Eterna round: R97, puzzle: Brourd's mod of Exclusion 4) | 13.6 | – | 13.2 | – | – | –
23 | UAGAAACAUGAGGAUCACCCAUGUGAGGAUAUGAAAAAGAAAAGAAAAGAAAGAAGAAUCAGAAGGCACAAAGG [salish99-ex1_r3_082] (puzzle: Exclusion 1) | – | – | – | 35.8 | 38.1 | 28.7
24 | AUAAUACAUGUAGGAUAUCUGCACGUUUAGUGCAGAGAAGGACAUGAGGAUCACCCAUGUAAUUAAGAUCAAUUAUUAAAUUAU [ENG1/3-D2] (Eterna round: R96, puzzle: Exclusion NG 1) | 293 | 54.7 | 66.2 | – | – | –
25 | UGCGAGUAAGGAUAUUCGCGACCGUUCACAAGAACGGUCGAGAAGAAGGUACUUGAGGAUCACCCAAGUCCUAG [Leonxegece] (Eterna round: R97, puzzle: Exclusion 4) | 103 | – | 24.2 | – | – | –
26 | UUUAAUUUAAUUAAGAUCACAUGAGGAUCACCCAUGUAUAUAUAGGAUAUCAGCUCGUGUAGAGCUGAGAAGGAUAUAUACAUA [ExNG3/4-A3] (Eterna round: R96, puzzle: Exclusion NG 3) | 46 | 35.9 | 101 | – | – | –
27 | UUUAAUUUUUUUUUUUUACAAGCUUUUUGCUCGUCUUAUACAUGAGGAUCACCCAUGUGGGUGGGAAGUAAAUUAUC [JMF 56] (puzzle: Sensor v3, turn-off variant 2) | – | – | – | 12.6 | 59 | 110
28 | GCCAUGUGAGGAUAUGUGGUCGAAUAUGAAAGUGAUUGACCAUAGAAGGCACAUGAGGAUCACCCAUGUCCUUU [Eternabot (L2) Solution 64] (Eterna round: R97, puzzle: Exclusion 4) | 131 | – | 27.3 | – | – | –
29 | GAGGAUAGAGGAUAUGCAUAGAUACGGAUUCGUGUAGUACUACAUGAGGAUCACCCAUGUAGAAGGCUGUCCUG [JL-ex2-2.01 mat747 mod] (puzzle: Exclusion 2) | – | – | – | 12.9 | – | –
30 | AAAAAGGCAGGAUAUACGAGUCAAAGAAAAGACAAAAAGGGACAUGAGGAUCACCCAUGUAGAAGGGCCAAAAA [Fiskers exclusion D2 62% 4] (Eterna round: R96, puzzle: Exclusion 2) | – | 31.9 | – | – | – | –
31 | UGUACUAACACGUAAGUGUUAGUACUAUAAGCUUGUGUUACAUGAGGAUCACCCAUGUCCUCAUAAGCUCGUCUUAA [Mat - Sensor v3 - Turn-off var 2 - D72] (puzzle: Sensor v3, turn-off variant 2) | – | – | – | 182 | 39.7 | 37.2
32 | AUCAGCUCGUGAGGAUAUACAUGAUAGAUCGAUUAAUUAAUUAAUUUAACAUGAGGAUCACCCAUGUAGAAGGCACGAGCUGAU [ENG2/1-A3] (Eterna round: R96, puzzle: Exclusion NG 2) | – | 30 | – | – | – | –
33 | ACUGGUCGAGGAUAUACAAUCGUGCUUCGGCACGUAAGAUCACAUGAGGAUCACCCAUGUAGAAGGUGACCAGU [E2/1-B2] (Eterna round: R97, puzzle: Exclusion 2) | 135 | – | 28.3 | – | – | –
